Assay results published in patent US20130210077.

Columns and labels:
[1] = tested on: CsnR (ROK-family transcriptional repressor, SSPG_04872) (Streptomyces lividans TK24); assay: competition
[2] = tested on: CsnR (ROK-family transcriptional repressor, SSPG_04872) (Streptomyces lividans TK24); assay: EMSA; conditions: 10 mM HEPES pH 7.9, 150 mM KCl, 10% glycerol, poly(dI-dC), room temperature

With “CCTCTTCTGGTAGGAAACTTTCCTATCAGT (double strand) [csnA-WT]” as the sequence, how does the IC50 ([1]; unlabeled competitor vs 0.03 nM labeled csnA-WT, SE logIC50 0.11) read?
The IC50 was 1.3 nM.

What about the Kd ([2]; SE 0.009 nM) of the same sequence?
The Kd was 0.032 nM.

For “CCTCTTCTGGTAGGAAACTGTCCGATCAGT (double strand) [csnA-MM]”, which IC50 ([1]; competitor vs labeled csnA-WT, +2 and +6 mutations, lost most affinity, SE logIC50 0.33) is on record?
The IC50 was 105 nM.

How did the IC50 ([1]; competitor vs labeled csnA-WT, +2 mutation, SE logIC50 0.13) turn out when “CCTCTTCTGGTAGGAAACTGTCCTATCAGT (double strand) [csnA-M1]” was run?
The IC50 was 52.1 nM.

With “CTCCAGCCAACAGGAAACTTTCCTAACAGA (double strand) [csnR-WT]” as the sequence, how does the Kd ([2]; SE 0.008 nM) read?
The Kd was 0.04 nM.

How did the IC50 ([1]; competitor vs labeled csnA-WT, +6 mutation, SE logIC50 0.08) turn out when “CCTCTTCTGGTAGGAAACTTTCCGATCAGT (double strand) [csnA-M2]” was run?
The IC50 was 2.7 nM.
